Legend:
[1] = tested on: phosphatidylserine (PS); assay: FPH thrombin generation response to PS blocking by lactadherin; type: biochemical, human
Method: Lactadherin (Haematologic Technologies, haemtech.com) was thawed per manufacturer instructions. FPHs were incubated with lactadherin at room temperature for 30 minutes at a concentration of 0, 25, 50, 100, and 200 μg/ml. 60 mM GPRP (BACHEM, bachem.com), thrombin (Sigma Aldrich, sigmaaldrich.com) and Octoplas (Octophrama, octopharma.com) were thawed according to manufacturer's guidelines. CLARIOstarPlus was used to perform TGA. A master mix of Octaplas, PRP reagent (Diagnostica Stago, Cat. No. 86196), and GPRP was prepared in a ratio of 14:3:1, respectively. Flu substrate and Fluo-buffer were combined according to manufacturer's guidelines to create FluCa (Diagnostica Stago, stago.com). Master mix and the FluCa solution were placed in the 37° C. air incubator with agitation for 45±5 minutes. […] 10 μl of each sample was dispensed into selected wells of a 96-well plate (Corning, corning.com) by reverse pipetting. TGA dilution buffer for thrombin was used in the thrombin standard ladder. CLARIOstarPlus injectors 1 and 2 were primed with master mix and FluCa solution with 250 μl, then the injector was placed in the active position. The CLARIOstarPlus TGA program was loaded with parameters for TGA assay with injectors set to add 90 μl of master mix and 40 μl of FluCa solution to each well. Plate was inserted to be read.

[2] = tested on: phosphatidylserine (PS) surface on FPH; assay: T-TAS of FPH with increasing dose of lactadherin; type: biochemical, human; conditions: highest lactadherin concentration (200 μg/mL), FPH 8×10^4 cells/μl
Method: Cells were adjusted to 8×10^4 cells/μl by diluting in Octaplas and in preparations of either 0, 100, or 200 μg/mL of lactadherin and incubated for 30 minutes at room temperature before acquisition on T-TAS® (Zacros®, zacros.con.co.jp). Samples (480 μl) were normalized to the above counts and then transferred to microcentrifuge tubes containing 20 ul of CaCTI (CaCl2 and corn trypsin inhibitor). The CaCTI-treated samples were transferred to sample reservoirs on a T-TAS®. The sample reservoirs were then inserted into the AR microfluidic chips and acquired on the T-TAS. […] This confirms the necessity of retaining the negatively charged PS surface on FPH to generate thrombin.

B1: lactadherin: lactadherin used to block PS expression (protein, UniProt Q95114 19-427, looked up)
Lactadherin: ASGDFCDSSLCLHGGTCLLNEDRTPPFYCLCPEGFTGLLCNETEHGPCFPNPCHNDAECQVTDDSHRGDVFIQYICKCPLGYVGIHCETTCTSPLGMQTGAIADSQISASSMHLGFMGLQRWAPELARLHQTGIVNAWTSGNYDKNPWIQVNLMRKMWVTGVVTQGASRAGSAEYLKTFKVAYSTDGRQFQFIQVAGRSGDKIFIGNVNNSGLKINLFDTPLETQYVRLVPIICHRGCTLRFELLGCELNGCTEPLGLKDNTIPNKQITASSYYKTWGLSAFSWFPYYARLDNQGKFNAWTAQTNSASEWLQIDLGSQKRVTGIITQGARDFGHIQYVAAYRVAYGDDGVTWTEYKDPGASESKIFPGNMDNNSHKKNIFETPFQARFVRIQPVAWHNRITLRVELLGC
thrombin generation of FPH ([1]; lactadherin 0, 25, 50, 100, 200 μg/ml): decreasing thrombin generation
maximum peak time of thrombin generation of FPH ([1]; lactadherin 0-200 μg/ml, 1:64 dilution): increasing maximum peak time
effect on time to thrombus formation of FPH [2]: approximately doubled the time to thrombus formation

Reference: US20240307453A1, “METHODS FOR CONTROLLING BLEEDING IN A SUBJECT AFFLICTED WITH HERMANSKY PUDLAK SYNDROME USING PLATELET DERIVATIVE COMPOSITIONS” (Cellphire, Inc., priority 2023, published 2024)
